# B1: Azoarcus group I ribozyme (parent)
# chain: GUGCCUUGCGCCGGGAAACCACGCAAGGGAUGGUGUCAAAUUCGGCGAAACCUAAGCGCCCGCCCGGGCGUAUGGCAACGCCGAGCCAAGCUUCGGCGCCUGCGCCGAUGAAGGUGUAGAGACUAGACGGCACCCACCUAAGGCAAACGCUAUGGUGAAGGCAUAGUCCAGGGAGUGGCGAAAGUCACACAAACCGG
# Variants of: B1
# Test: reverse-splicing fitness (ratio to wild type); higher = more active; in vitro selection; Mg2+ level not given
# Outline: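 An in vitro group I ribozyme library with randomized positions was T7-transcribed and gel-purified. In triplicate, 10 pmol RNA in EPPS pH 7.5 was reacted with 50 pmoles of a 30-nt RNA substrate for 1 h at 37 °C across several added MgCl2 levels (1–48 mM), then stopped with EDTA. Products were reverse transcribed from a substrate-complementary primer, PCR-amplified and sequenced (HiSeq 4000). Fitness is a variant's read proportion after selection over that before, normalised to wild type.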
row,Variant,reverse-splicing fitness
1,GUGCCUUGCGCCGGGAAACCACGCAAGGGAUGGUGUCAAAUUCGGCGAAACCUAAGCGCCCGCCCGGGCGUAUGGCAACGCGGAGCCAAGCUUCGGCGCCUGCGCCGAUGAAGGUGUAGAGACUAGACGGCACCCACCUAAGGCGAACGCUAUGGUGAAGGCAUAGUCCAGGGAGCGGCGAAAGUCACACAAACCGG [C82G A145G U176C],0.374
2,GUGCCUUGCGCCGGGAAACCACGCAAGGGAUGGUGUCAAAUUCGGCGAAACCUAAGCGCCCGCCCGGGCGUAUGGCAACGCGGAGCCAAGCUUCGGCGCCUGCGCCGAUGAAGGUGUAGAGACUAGACGGCACCCACCUAAGGCGAACGCUAUGGUGAAGGCAUAGUCCAGGGAGAGGCGAAAGUCACACAAACCGG [C82G A145G U176A],0.341
3,GUGCCUUGCGCCGGGAAACCACGCAAGGGAUGGUGUCAAAUUCGGCGAAACCUAAGCGCCCGCCCGGGCGUAUGGCAACGCGGAGCCAAGCUUCGGCGCCUGCGCCGAUGAAGGUGUAGAGACUAGACGGCACCCACCUAAGGCGAACGCUAUGGUGAAGGCAUAGUCCAGGGAGGGGCGAAAGUCACACAAACCGG [C82G A145G U176G],0.133
4,GUGCCUUGCGCCGGGAAACCACGCAAGGGAUGGUGUCAAAUUCGGCGAAACCUAAGCGCCCGCCCGGGCGUAUGGCAACGCGGAGCCAAGCUUCGGCGCCUGCGCCGAUGAAGGUGUAGAGACUAGACGGCACCCACCUAAGGCGAACGCUAUGGUGAAGGCAUAGUCGAGGGAGAGGCGAAAGUCACACAAACCGG [C82G A145G C169G U176A],0.0176
5,GUGCCUUGCGCCGGGAAACCACGCAAGGGAUGGUGUCAAAUUCGGCGAAACCUAAGCGCCCGCCCGGGCGUAUGGCAACGCGGAGCCAAGCUUCGGCGCCUGCGCCGAUGAAGGUGUAGAGACUAGACGGCACCCACCUAAGGCGAACGCUAUGGUGAAGGCAUAGUCGAGGGAGGGGCGAAAGUCACACAAACCGG [C82G A145G C169G U176G],0.00454
6,GUGCCUUGCGCCGGGAAACCACGCAAGGGAUGGUGUCAAAUUCGGCGAAACCUAAGCGCCCGCCCGGGCGUAUGGCAACGCGGAGCCAAGCUUCGGCGCCUGCGCCGAUGAAGGUGUAGAGACUAGACGGCACCCACCUAAGGCGAACGCUAUGGUGAAGGCAUAGUCGAGGGAGCGGCGAAAGUCACACAAACCGG [C82G A145G C169G U176C],0.0279
7,GUGCCUUGCGCCGGGAAACCACGCAAGGGAUGGUGUCAAAUUCGGCGAAACCUAAGCGCCCGCCCGGGCGUAUGGCAACGCGGAGCCAAGCUUCGGCGCCUGCGCCGAUGAAGGUGUAGAGACUAGACGGCACCCACCUAAGGCUAACGAUAUGGUGAAGGCAUAGUCGAGGGAGGGGCGAAAGUCACACAAACCGG [C82G A145U C150A C169G U176G],0.00436
8,GUGCCUUGCGCCGGGAAACCACGCAAGGGAUGGUGUCAAAUUCGGCGAAACCUAAGCGCCCGCCCGGGCGUAUGGCAACGCGGAGCCAAGCUUCGGCGCCUGCGCCGAUGAAGGUGUAGAGACUAGACGGCACCCACCUAAGGCUAACGAUAUGGUGAAGGCAUAGUCGAGGGAGAGGCGAAAGUCACACAAACCGG [C82G A145U C150A C169G U176A],0.0109
9,GUGCCUUGCGCCGGGAAACCACGCAAGGGAUGGUGUCAAAUUCGGCGAAACCUAAGCGCCCGCCCGGGCGUAUGGCAACGCGGAGCCAAGCUUCGGCGCCUGCGCCGAUGAAGGUGUAGAGACUAGACGGCACCCACCUAAGGCUAACGAUAUGGUGAAGGCAUAGUCGAGGGAGCGGCGAAAGUCACACAAACCGG [C82G A145U C150A C169G U176C],0.0129
10,GUGCCUUGCGCCGGGAAACCACGCAAGGGAUGGUGUCAAAUUCGGCGAAACCUAAGCGCCCGCCCGGGCGUAUGGCAACGCGGAGCCAAGCUUCGGCGCCUGCGCCGAUGAAGGUGUAGAGACUAGACGGCACCCACCUAAGGCGAACGCUAUGGUGAAGGCAUAGUCAAGGGAGGGGCGAAAGUCACACAAACCGG [C82G A145G C169A U176G],0.00413
11,GUGCCUUGCGCCGGGAAACCACGCAAGGGAUGGUGUCAAAUUCGGCGAAACCUAAGCGCCCGCCCGGGCGUAUGGCAACGCGGAGCCAAGCUUCGGCGCCUGCGCCGAUGAAGGUGUAGAGACUAGACGGCACCCACCUAAGGCUAACGAUAUGGUGAAGGCAUAGUCAAGGGAGAGGCGAAAGUCACACAAACCGG [C82G A145U C150A C169A U176A],0.0121
12,GUGCCUUGCGCCGGGAAACCACGCAAGGGAUGGUGUCAAAUUCGGCGAAACCUAAGCGCCCGCCCGGGCGUAUGGCAACGCGGAGCCAAGCUUCGGCGCCUGCGCCGAUGAAGGUGUAGAGACUAGACGGCACCCACCUAAGGCUAACGAUAUGGUGAAGGCAUAGUCAAGGGAGCGGCGAAAGUCACACAAACCGG [C82G A145U C150A C169A U176C],0.0106
13,GUGCCUUGCGCCGGGAAACCACGCAAGGGAUGGUGUCAAAUUCGGCGAAACCUAAGCGCCCGCCCGGGCGUAUGGCAACGCGGAGCCAAGCUUCGGCGCCUGCGCCGAUGAAGGUGUAGAGACUAGACGGCACCCACCUAAGGCUAACGAUAUGGUGAAGGCAUAGUCAAGGGAGGGGCGAAAGUCACACAAACCGG [C82G A145U C150A C169A U176G],0.00561
14,GUGCCUUGCGCCGGGAAACCACGCAAGGGAUGGUGUCAAAUUCGGCGAAACCUAAGCGCCCGCCCGGGCGUAUGGCAACGCGGAGCCAAGCUUCGGCGCCUGCGCCGAUGAAGGUGUAGAGACUAGACGGCACCCACCUAAGGCUAACGAUAUGGUGAAGGCAUAGUCCAGGGAGCGGCGAAAGUCACACAAACCGG [C82G A145U C150A U176C],0.0384
15,GUGCCUUGCGCCGGGAAACCACGCAAGGGAUGGUGUCAAAUUCGGCGAAACCUAAGCGCCCGCCCGGGCGUAUGGCAACGCGGAGCCAAGCUUCGGCGCCUGCGCCGAUGAAGGUGUAGAGACUAGACGGCACCCACCUAAGGCUAACGAUAUGGUGAAGGCAUAGUCCAGGGAGAGGCGAAAGUCACACAAACCGG [C82G A145U C150A U176A],0.0428
16,GUGCCUUGCGCCGGGAAACCACGCAAGGGAUGGUGUCAAAUUCGGCGAAACCUAAGCGCCCGCCCGGGCGUAUGGCAACGCGGAGCCAAGCUUCGGCGCCUGCGCCGAUGAAGGUGUAGAGACUAGACGGCACCCACCUAAGGCUAACGAUAUGGUGAAGGCAUAGUCCAGGGAGGGGCGAAAGUCACACAAACCGG [C82G A145U C150A U176G],0.0186
17,GUGCCUUGCGCCGGGAAACCACGCAAGGGAUGGUGUCAAAUUCGGCGAAACCUAAGCGCCCGCCCGGGCGUAUGGCAACGCGGAGCCAAGCUUCGGCGCCUGCGCCGAUGAAGGUGUAGAGACUAGACGGCACCCACCUAAGGCUAACGAUAUGGUGAAGGCAUAGUCUAGGGAGUGGCGAAAGUCACACAAACCGG [C82G A145U C150A C169U],0.00756
18,GUGCCUUGCGCCGGGAAACCACGCAAGGGAUGGUGUCAAAUUCGGCGAAACCUAAGCGCCCGCCCGGGCGUAUGGCAACGCGGAGCCAAGCUUCGGCGCCUGCGCCGAUGAAGGUGUAGAGACUAGACGGCACCCACCUAAGGCUAACGAUAUGGUGAAGGCAUAGUCAAGGGAGUGGCGAAAGUCACACAAACCGG [C82G A145U C150A C169A],0.00972
19,GUGCCUUGCGCCGGGAAACCACGCAAGGGAUGGUGUCAAAUUCGGCGAAACCUAAGCGCCCGCCCGGGCGUAUGGCAACGCGGAGCCAAGCUUCGGCGCCUGCGCCGAUGAAGGUGUAGAGACUAGACGGCACCCACCUAAGGCUAACGAUAUGGUGAAGGCAUAGUCGAGGGAGUGGCGAAAGUCACACAAACCGG [C82G A145U C150A C169G],0.00669
20,GUGCCUUGCGCCGGGAAACCACGCAAGGGAUGGUGUCAAAUUCGGCGAAACCUAAGCGCCCGCCCGGGCGUAUGGCAACGCGGAGCCAAGCUUCGGCGCCUGCGCCGAUGAAGGUGUAGAGACUAGACGGCACCCACCUAAGGCUAACGAUAUGGUGAAGGCAUAGUCUAGGGAGAGGCGAAAGUCACACAAACCGG [C82G A145U C150A C169U U176A],0.0124
21,GUGCCUUGCGCCGGGAAACCACGCAAGGGAUGGUGUCAAAUUCGGCGAAACCUAAGCGCCCGCCCGGGCGUAUGGCAACGCGGAGCCAAGCUUCGGCGCCUGCGCCGAUGAAGGUGUAGAGACUAGACGGCACCCACCUAAGGCUAACGAUAUGGUGAAGGCAUAGUCUAGGGAGGGGCGAAAGUCACACAAACCGG [C82G A145U C150A C169U U176G],0.00507
22,GUGCCUUGCGCCGGGAAACCACGCAAGGGAUGGUGUCAAAUUCGGCGAAACCUAAGCGCCCGCCCGGGCGUAUGGCAACGCGGAGCCAAGCUUCGGCGCCUGCGCCGAUGAAGGUGUAGAGACUAGACGGCACCCACCUAAGGCUAACGAUAUGGUGAAGGCAUAGUCUAGGGAGCGGCGAAAGUCACACAAACCGG [C82G A145U C150A C169U U176C],0.013
23,GUGCCUUGCGCCGGGAAACCACGCAAGGGAUGGUGUCAAAUUCGGCGAAACCUAAGCGCCCGCCCGGGCGUAUGGCAACGCGGAGCCAAGCUUCGGCGCCUGCGCCGAUGAAGGUGUAGAGACUAGACGGCACCCACCUAAGGCUAACGCUAUGGUGAAGGCAUAGUCCAGGGAGUGGCGAAAGUCACACAAACCGG [C82G A145U],0.509
24,GUGCCUUGCGCCGGGAAACCACGCAAGGGAUGGUGUCAAAUUCGGCGAAACCUAAGCGCCCGCCCGGGCGUAUGGCAACGCGGAGCCAAGCUUCGGCGCCUGCGCCGAUGAAGGUGUAGAGACUAGACGGCACCCACCUAAGGCGAACGCUAUGGUGAAGGCAUAGUCGAGGGAGUGGCGAAAGUCACACAAACCGG [C82G A145G C169G],0.0112
25,GUGCCUUGCGCCGGGAAACCACGCAAGGGAUGGUGUCAAAUUCGGCGAAACCUAAGCGCCCGCCCGGGCGUAUGGCAACGCGGAGCCAAGCUUCGGCGCCUGCGCCGAUGAAGGUGUAGAGACUAGACGGCACCCACCUAAGGCGAACGCUAUGGUGAAGGCAUAGUCUAGGGAGUGGCGAAAGUCACACAAACCGG [C82G A145G C169U],0.0164
26,GUGCCUUGCGCCGGGAAACCACGCAAGGGAUGGUGUCAAAUUCGGCGAAACCUAAGCGCCCGCCCGGGCGUAUGGCAACGCGGAGCCAAGCUUCGGCGCCUGCGCCGAUGAAGGUGUAGAGACUAGACGGCACCCACCUAAGGCUAACGAUAUGGUGAAGGCAUAGUCCAGGGAGUGGCGAAAGUCACACAAACCGG [C82G A145U C150A],0.0405
27,GUGCCUUGCGCCGGGAAACCACGCAAGGGAUGGUGUCAAAUUCGGCGAAACCUAAGCGCCCGCCCGGGCGUAUGGCAACGCGGAGCCAAGCUUCGGCGCCUGCGCCGAUGAAGGUGUAGAGACUAGACGGCACCCACCUAAGGCUAACGGUAUGGUGAAGGCAUAGUCCAGGGAGUGGCGAAAGUCACACAAACCGG [C82G A145U C150G],0.0473
28,GUGCCUUGCGCCGGGAAACCACGCAAGGGAUGGUGUCAAAUUCGGCGAAACCUAAGCGCCCGCCCGGGCGUAUGGCAACGCGGAGCCAAGCUUCGGCGCCUGCGCCGAUGAAGGUGUAGAGACUAGACGGCACCCACCUAAGGCGAACGCUAUGGUGAAGGCAUAGUCUAGGGAGGGGCGAAAGUCACACAAACCGG [C82G A145G C169U U176G],0.00412
29,GUGCCUUGCGCCGGGAAACCACGCAAGGGAUGGUGUCAAAUUCGGCGAAACCUAAGCGCCCGCCCGGGCGUAUGGCAACGCGGAGCCAAGCUUCGGCGCCUGCGCCGAUGAAGGUGUAGAGACUAGACGGCACCCACCUAAGGCGAACGCUAUGGUGAAGGCAUAGUCUAGGGAGCGGCGAAAGUCACACAAACCGG [C82G A145G C169U U176C],0.0155
30,GUGCCUUGCGCCGGGAAACCACGCAAGGGAUGGUGUCAAAUUCGGCGAAACCUAAGCGCCCGCCCGGGCGUAUGGCAACGCGGAGCCAAGCUUCGGCGCCUGCGCCGAUGAAGGUGUAGAGACUAGACGGCACCCACCUAAGGCGAACGCUAUGGUGAAGGCAUAGUCUAGGGAGAGGCGAAAGUCACACAAACCGG [C82G A145G C169U U176A],0.0138
